Three molecules from patent US20240181074A1 (SHENZHEN ENDURING BIOTECH, published 2024) can be followed below.

The Kd is the concentration at which binding is half-saturated. The low end stands for a tighter complex, the high end for a looser complex. The koff is the rate constant with which the complex falls apart. A high value points to fast dissociation. As usually defined, the kon is a measure of how fast the partners come together.

One test addresses T1, human CD19 on cells (human, UniProt P15391 20-556).
T1 sequence (looked up): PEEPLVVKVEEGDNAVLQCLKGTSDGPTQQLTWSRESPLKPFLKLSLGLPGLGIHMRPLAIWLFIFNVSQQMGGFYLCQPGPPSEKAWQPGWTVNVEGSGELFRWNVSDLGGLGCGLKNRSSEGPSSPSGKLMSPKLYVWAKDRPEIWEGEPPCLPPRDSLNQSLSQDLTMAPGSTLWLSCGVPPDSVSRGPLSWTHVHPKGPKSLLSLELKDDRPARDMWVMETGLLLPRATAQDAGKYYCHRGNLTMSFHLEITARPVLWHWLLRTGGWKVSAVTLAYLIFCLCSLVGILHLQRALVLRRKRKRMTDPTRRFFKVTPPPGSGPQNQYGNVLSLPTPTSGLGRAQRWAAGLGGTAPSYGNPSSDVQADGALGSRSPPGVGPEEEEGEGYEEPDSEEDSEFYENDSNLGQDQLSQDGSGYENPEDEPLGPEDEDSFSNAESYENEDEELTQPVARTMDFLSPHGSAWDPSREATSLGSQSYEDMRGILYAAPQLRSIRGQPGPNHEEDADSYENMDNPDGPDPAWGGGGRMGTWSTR
The test is described as follows: cell-based or functional assay.

For test [1], the target named is T2, human CD19-Fc protein (AcroBiosystems, Cat. CD19-H5259 / Code CD9-H5259) (human, UniProt P15391 20-291).
T2 construct: not shown: Fc of the bought CD19-Fc
T2 sequence (looked up): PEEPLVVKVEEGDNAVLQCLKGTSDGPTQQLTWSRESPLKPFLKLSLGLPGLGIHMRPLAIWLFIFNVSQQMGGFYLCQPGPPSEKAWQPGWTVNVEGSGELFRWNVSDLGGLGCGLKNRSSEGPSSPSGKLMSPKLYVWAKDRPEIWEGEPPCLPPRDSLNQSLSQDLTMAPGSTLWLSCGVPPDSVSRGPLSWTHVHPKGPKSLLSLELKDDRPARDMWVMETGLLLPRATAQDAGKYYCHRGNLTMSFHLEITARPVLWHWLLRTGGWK
The test is described as follows: BiaCore SPR, ligand captured by Fc capture. The source says:
General procedure: Diluted human CD19 (AcroBiosystems, Cat. CD19-H5259) or human CD3E&3D (AcroBiosystems, Cat. CDD-H52W0) were captured on the sensor chip through Fc capture method. The capture time for human CD3E & CD3D and for human CD19 was set for 12 s and 12-30 s respectively and capture flow rate was […]. Each sample tested was serially diluted into 6-8 concentrations. The association time and dissociation time for the analytes were set for 180 s and 420 s respectively, and the flow rate for the analyte was set at […]. For surface regeneration, 10 mM Glycine-HCl buffer was used; the contact time was set for 30 s and the flow rate was […]. Flow cell 1 and blank injection of buffer in each cycle were used as double references for Response Units subtraction. All data were processed using BiaCore T2000 Evaluation software (version 3.1).
A general note: Surface plasmon resonance follows binding to a sensor surface in real time, without labels.

B1: JY108 (PEGylated BsAb anti-CD3 x anti-CD19) (bispecific antibody)
scFv 1: DIQLTQSPASLAVSLGQRATISCKASQSVDYDGDSYLNWYQQIPGQPPKLLIYDASNLVSGIPPRFSGSGSGTDFTLNIHPVEKVDAATYHCQQSTEDPWTFGGGTKLEIKGCGGGSGGGGSGGGGSQVQLQQSGAELVRPGSSVKISCKASGYAFSSYWMNWVKQRPGQGLEWIGQIWPGDGDTNYNGKFKGKATLTADESSSTAYMQLSSLASEDSAVYFCARRETTTVGRYYYAMDYWGQGTTVTVSS
scFv 2: not shown
modifications: conjugated through a linker to the branched terminal of mPEG (structure given only as a drawing); residue not given
notes: also called PEGylated T-BsAb JY108
Consider B1, for which, in the test with human CD19 on cells, the “EC50 of cell killing (MTS cytotoxicity), Nalm-6, E:T=5:1” value worked out at 0.0376 mg/L; the “EC50 of cell killing (MTS cytotoxicity), Nalm-6, E:T=10:1” value worked out at 0.0147 mg/L; the “EC50 of cell killing (MTS cytotoxicity), REH” value was 0.0104 mg/L; the “EC50 of cell killing (MTS cytotoxicity), Raji” value was 0.159 mg/L. In test [1], this molecule gave a Kd of 1.44 nM, a koff of 0.000566 s⁻¹ and a kon of 392000 M⁻¹ s⁻¹.

B2: anti-CD19 scFv (SCACD19) (scFv)
scFv: DIQLTQSPASLAVSLGQRATISCKASQSVDYDGDSYLNWYQQIPGQPPKLLIYDASNLVSGIPPRFSGSGSGTDFTLNIHPVEKVDAATYHCQQSTEDPWTFGGGTKLEIKGCGGGSGGGGSGGGGSQVQLQQSGAELVRPGSSVKISCKASGYAFSSYWMNWVKQRPGQGLEWIGQIWPGDGDTNYNGKFKGKATLTADESSSTAYMQLSSLASEDSAVYFCARRETTTVGRYYYAMDYWGQGTTVTVSSHHHHHH
For B2, in test [1], the Kd stood at 0.0653 nM, the koff was 0.000343 s⁻¹ and the kon worked out at 5.26e+06 M⁻¹ s⁻¹.

B3: anti-CD19 scFv-Linker (anti-CD19-Linker) (scFv)
scFv: B2 scFv
modifications: conjugated to a linker (linker is a much smaller PEG11); the residue is not given
notes: Linker conjugate of SCACD19; also called SCACD19-linker
In test [1], B3 yielded a Kd of 0.111 nM, a koff of 0.000309 s⁻¹ and an on-rate (kon) of 2.79e+06 M⁻¹ s⁻¹.
